Results published in US20240117334A1, “FACTOR B PROTEASES” (Vertex Pharmaceuticals Incorporated, priority 2021, published 2024).
Residue numbers refer to the chain shown, from its start. Names may count otherwise.

B1: chymase C22S/P38Q/K40A/F41R/L99H/V138I/F173Y/D175N/A190S/V213A/S218L/A226R (enzyme)
chain: IIGGTESKPHSRPYMAYLEIVTSNGQSARCGGFLIRRNFVLTAAHCAGRSITVTLGAHNITEEEDTWQKLEVIKQFRHPKYNTSTHHHDIMLLKLKEKASLTLAVGTLPFPSQFNFVPPGRMCRIAGWGRTGVLKPGSDTLQEVKLRLMDPQACSHYRNFDHNLQLCVGNPRKTKSSFKGDSGGPLLCAGVAQGIASYGRLDAKPPRVFTRISHYRPWINQILQAN
B2: chymase C22S/P38Q/K40M/F41R/L99Y/V138I/F173L/D175S/A190S/V213A/S218T/A226R (enzyme)
chain: B1 chain with A28M, H86Y, Y157L, N159S, L201T
B3: chymase C22S/P38Q/K40M/F41R/L99Y/V138I/F173S/D175S/A190S/V213A/S218T/A226R (enzyme)
chain: B1 chain with A28M, H86Y, Y157S, N159S, L201T
B4: chymase C22S/P38Q/K40M/F41R/L99W/V138I/F173M/D175H/A190S/V213A/S218T/A226R (enzyme)
chain: B1 chain with A28M, H86W, Y157M, N159H, L201T
B5: chymase C22S/P38Q/K40L/F41R/V138I/F173L/D175R/A190S/V213A/S218V/A226R (enzyme)
chain: B1 chain with A28L, H86L, Y157L, N159R, L201V
B6: chymase C22S/P38Q/K40M/F41R/L99H/V138I/D175Q/A190S/V213A/S218V/A226R (enzyme)
chain: B1 chain with A28M, Y157F, N159Q, L201V
B7: chymase C22S/P38Q/K40V/F41R/V138I/F173L/D175R/A190S/V213A/S218I/A226R (enzyme)
chain: B1 chain with A28V, H86L, Y157L, N159R, L201I
B8: chymase C22S/P38Q/K40L/F41K/L99N/V138I/F173Y/D175S/A190S/V213A/S218I/A226R (enzyme)
chain: B1 chain with A28L, R29K, H86N, N159S, L201I
B9: chymase C22S/P38Q/K40A/F41R/L99Y/V138I/F173L/D175R/A190S/V213A/S218L/A226R (enzyme)
chain: B1 chain with H86Y, Y157L, N159R
B10: chymase C22S/L99R/F173Y/K192R/S218L/A226R (enzyme)
chain: B1 chain with Q26P, A28K, R29F, H86R, I125V, N159D, S177A, K179R, A196V
B11: chymase C22S/P38Q/K40A/F41Q/V138I/F173S/D175W/A190S/V213A/S218V/A226R (enzyme)
chain: B1 chain with R29Q, H86L, Y157S, N159W, L201V
B12: chymase C22S/P38Q/K40I/F41R/L99N/V138I/D175T/A190S/V213A/S218V/A226R (enzyme)
chain: B1 chain with A28I, H86N, Y157F, N159T, L201V
B13: chymase C22S/P38Q/K40V/F41R/L99H/V138I/F173M/D175N/A190S/V213A/S218T/A226R (enzyme)
chain: B1 chain with A28V, Y157M, L201T
B14: chymase C22S/P38Q/K40M/F41R/V138I/F173Y/D175Y/A190S/V213A/S218I/A226R (enzyme)
chain: B1 chain with A28M, H86L, N159Y, L201I
B15: chymase C22S/P38Q/K40M/F41R/L99N/V138I/F173Y/D175W/A190S/V213A/S218T/A226R (enzyme)
chain: B1 chain with A28M, H86N, N159W, L201T
B16: chymase C22S/P38Q/K40M/F41H/V138I/D175S/A190S/V213A/A226R (enzyme)
chain: B1 chain with A28M, R29H, H86L, Y157F, N159S, L201S
B17: chymase C22S/P38Q/K40Q/F41R/L99H/V138I/F173Y/D175S/A190S/V213A/S218V/A226R (enzyme)
chain: B1 chain with A28Q, N159S, L201V
B18: chymase C22S/P38Q/K40M/F41R/V138I/F173L/D175K/A190S/V213A/S218V/A226R (enzyme)
chain: B1 chain with A28M, H86L, Y157L, N159K, L201V
B19: chymase C22S/P38Q/K40L/F41R/L99Y/V138I/F173Y/D175N/A190S/V213A/S218V/A226R (enzyme)
chain: B1 chain with A28L, H86Y, L201V
B20: chymase C22S/P38Q/K40M/F41R/L99Q/V138I/F173Y/D175N/A190S/V213A/S218V/A226R (enzyme)
chain: B1 chain with A28M, H86Q, L201V
B21: chymase C22S/P38Q/K40A/F41R/L99H/V138I/D175N/A190S/V213A/S218I/A226R (enzyme)
chain: B1 chain with Y157F, L201I
B22: chymase C22S/P38Q/K40A/F41R/L99H/V138I/F173Y/D175N/A190S/V213A/S218I/A226R (enzyme)
chain: B1 chain with L201I
B23: chymase C22S/P38Q/K40L/F41R/L99M/V138I/F173L/D175R/A190S/V213A/S218V/A226R (enzyme)
chain: B1 chain with A28L, H86M, Y157L, N159R, L201V
B24: chymase C22S/P38Q/K40A/F41K/L99N/V138I/D175H/A190S/V213A/S218V/A226R (enzyme)
chain: B1 chain with R29K, H86N, Y157F, N159H, L201V
B25: chymase C22S/P38Q/K40V/F41R/V138I/F173L/D175N/A190S/V213A/S218V/A226R (enzyme)
chain: B1 chain with A28V, H86L, Y157L, L201V
B26: chymase C22S/P38Q/K40A/F41T/L99Y/V138I/F173S/D175H/A190S/V213A/S218I/A226R (enzyme)
chain: B1 chain with R29T, H86Y, Y157S, N159H, L201I
B27: chymase C22S/P38Q/K40M/F41R/V138I/F173S/D175Y/A190S/V213A/S218V/A226R (enzyme)
chain: B1 chain with A28M, H86L, Y157S, N159Y, L201V
B28: chymase C22S/P38Q/K40L/F41R/L99F/V138I/F173L/D175N/A190S/V213A/A226R (enzyme)
chain: B1 chain with A28L, H86F, Y157L, L201S
B29: chymase C22S/P38Q/K40M/F41R/L99N/V138I/F173Y/D175F/A190S/V213A/S218V/A226R (enzyme)
chain: B1 chain with A28M, H86N, N159F, L201V

Target: Human Factor B (human) (UniProt P00751)
Sequence (P00751 26-764 limits assumed): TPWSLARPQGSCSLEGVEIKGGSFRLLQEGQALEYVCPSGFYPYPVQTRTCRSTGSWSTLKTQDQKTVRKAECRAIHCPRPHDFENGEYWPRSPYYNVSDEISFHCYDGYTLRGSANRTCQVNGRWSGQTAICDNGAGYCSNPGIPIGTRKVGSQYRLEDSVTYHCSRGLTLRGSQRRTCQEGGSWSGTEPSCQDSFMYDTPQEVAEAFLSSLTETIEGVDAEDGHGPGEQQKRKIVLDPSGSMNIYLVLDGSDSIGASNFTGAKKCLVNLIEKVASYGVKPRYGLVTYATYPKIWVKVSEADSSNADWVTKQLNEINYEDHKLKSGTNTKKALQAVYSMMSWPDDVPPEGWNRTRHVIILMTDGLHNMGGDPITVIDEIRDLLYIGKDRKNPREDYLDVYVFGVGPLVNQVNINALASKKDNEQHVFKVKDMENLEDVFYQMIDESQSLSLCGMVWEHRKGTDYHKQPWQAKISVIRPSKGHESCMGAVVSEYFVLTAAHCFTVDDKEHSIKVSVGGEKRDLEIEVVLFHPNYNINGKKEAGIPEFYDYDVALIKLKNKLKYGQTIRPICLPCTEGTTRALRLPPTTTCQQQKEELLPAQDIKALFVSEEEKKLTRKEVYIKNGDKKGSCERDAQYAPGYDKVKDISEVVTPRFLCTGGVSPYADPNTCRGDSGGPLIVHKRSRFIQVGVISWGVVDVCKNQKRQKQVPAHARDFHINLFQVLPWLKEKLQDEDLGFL
Assay: cell-based or functional assay

Binder	fB Cleavage EC50 [nM]
B1	139
B2	1230
B3	10600
B4	414
B5	113
B6	301
B7	169
B8	144
B9	511
B10	555
B11	2190
B12	203
B13	639
B14	465
B15	500
B16	1060
B17	150
B18	350
B19	57
B20	157
B21	170
B22	92.9
B23	213
B24	121
B25	279
B26	3130
B27	287
B28	631
B29	193
